How the values were obtained:
[1] = system: T1, COc1ccc2c(CC(=O)N3CCC[C@H]3C(=O)N[C@@H](CCCCN)C(=O)N3CCC[C@H]3C(=O)N[C@@H](CCC(N)=O)C(=O)N[C@@H](CCC(N)=O)C(=O)N[C@@H](Cc3ccccc3)C(=O)N[C@@H](Cc3ccccc3)C(=O)NCC(=O)N[C@@H](CC(C)C)C(=O)N[C@@H](CCCCNc3ccc([N+](=O)[O-])cc3[N+](=O)[O-])C(=O)NCC(=O)O)cc(=O)oc2c1; assay: Fluorometric hydrolysis of synthetic Mca/Lys(Dnp) substrates by MMP-3; format: biochemical, human; settings: other: MMP-3, 37° C., pH 7.5; 37.0 °C
T1 construct: made in house; host or cells: native secreted protein purified from culture medium of human rheumatoid synovial cells
Description: (§1) All MMPs were purified in zymogen form. ProMMP-1 (Suzuki et al., Biochem., 29, 10261 (1990)), proMMP-2 (Okada et al., Eur. J. Biochem., 194, 721 (1990)), and proMMP-3 (Ito et al., Arch. Biochem. Biophys., 267, 211 (1988)) were purified from the culture medium of human rheumatoid synovial cells stimulated with rabbit macrophage-conditioned medium. ProMMP-9 was purified from the culture medium of HT-1080 cells as described in Morodomi et al., Biochem. J., 285, 603 (1992). ProMMP-2 and proMMP-9 were activated by reacting with 1 mM 4-aminophenylmercuric acetate at 37° C. for 45 minutes and 32 hours, respectively. ProMMP-1 was activated by reacting with 1 mM 4-aminophenylmercuric acetate and an equimolar amount of MMP-3 at 37° C. for 6 hours. After activation, MMP-3 was completely removed from MMP-1 by affinity chromatography using an anti-MMP-3 IgG Affi-Gel 10 column. The resin, Affi-Gel 10 (Biorad, Emoryville, Calif.), was coupled to anti-MMP-3 IgG (Okada et al., Annals of Rheumat. Dis., 48, 645 (1989)) per the manufacturer's protocol. Pro-MMP-3 was activated by reacting with 5 μg/mL chymotrypsin at 37° C. for 2 hours. Chymotrypsin was inactivated with 2 mM diisopropylfluorophosphate. The amounts of active MMP-1, MMP-2, and MMP-3 were determined by titration with tissue inhibitor of metalloproteinase-1(TIMP1) over a concentration range of 0.1-3 μg/mL, while the amount of active MMP-9 was determined by titration with TIMP-2 (0.1-3 μg/mL). TIMP-1 was isolated from the medium of HT-1080 cells as described in Morodomi et al., Biochem J., 285, 603 (1992).
(§2) Substrates were prepared as 10 mM stock solutions in dimethylsulfoxide (DMSO). Fluorescent assays were performed at λex =325 nm and λem =393 nm, which should encounter no interference from Trp residues, using a Hitachi fluorescence spectrophotometer F-3010. Initial total hydrolysis assays were run at a substrate concentration of […] to avoid filtering effects. The change in fluorescence at this concentration was 110 based on total hydrolysis of 1 μM substrate. A typical assay was carried out by incubating 100 μL of various concentrations of a substrate with 10 μL of an enzyme solution (2-20 nM) in 50 mM Tris-HCl, pH 7.5, 0.15M NaCl, 10 mM CaCl2, 0.05% Brij 35, 0.02% NaN3. The reaction was stopped by addition of 900 μl of 3% (v/v) glacial acetic acid. MMP-3 activity at pH 6.0 was measured in 50 mM sodium acetate buffer, pH 6.0, instead of Tris-HCl buffer. The amount of substrate hydrolysis was calculated based on the fluorescence values of the Mca-Arg-Pro-Lys-Pro-Gln standard solution after substraction of the reaction blank value (stopping solution added before the enzyme). Individual kinetic parameters (kcat and KM) were determined over a substrate concentration range of 2.5-75 μM and calculated by double reciprocal plots.

[2] = system: T2, CCC[C@H](NC(=O)[C@H](C)NC(=O)[C@H](Cc1ccc(O)cc1)NC(=O)[C@@H]1CCCN1C(=O)[C@H](CCCCN)NC(=O)[C@@H]1CCCN1C(=O)[C@H](CCCNC(=N)N)NC(=O)Cc1cc(=O)oc2cc(OC)ccc12)C(=O)N[C@@H](Cc1c[nH]c2ccccc12)C(=O)N[C@@H](CCSC)C(=O)N[C@@H](CCCCNc1ccc([N+](=O)[O-])cc1[N+](=O)[O-])C(N)=O; assay: as above; format: biochemical, human; settings: other: MMP-3, 37° C., pH 7.5; 37.0 °C
T2 construct: made in house; host or cells: native secreted protein purified from culture medium of human rheumatoid synovial cells
Description: as §1, §2

[3] = system: T3, CCC[C@H](NC(=O)[C@H](CCC(=O)O)NC(=O)[C@@H](NC(=O)[C@@H]1CCCN1C(=O)[C@H](CCCCN)NC(=O)[C@@H]1CCCN1C(=O)[C@H](CCCNC(=N)N)NC(=O)Cc1cc(=O)oc2cc(OC)ccc12)C(C)C)C(=O)N[C@@H](Cc1c[nH]c2ccccc12)C(=O)N[C@@H](CCCNC(=N)N)C(=O)N[C@@H](CCCCNc1ccc([N+](=O)[O-])cc1[N+](=O)[O-])C(N)=O; assay: as above; format: biochemical, human
T3 construct: made in house; host or cells: native secreted protein purified from culture medium of human rheumatoid synovial cells
Description: as §1, §2

[4] = system: T4, COc1ccc2c(CC(=O)N3CCC[C@H]3C(=O)N[C@@H](CCCCN)C(=O)N3CCC[C@H]3C(=O)N[C@@H](CCC(N)=O)C(=O)N[C@@H](CCC(N)=O)C(=O)N[C@@H](Cc3ccccc3)C(=O)N[C@@H](Cc3ccccc3)C(=O)NCC(=O)N[C@@H](CC(C)C)C(=O)N[C@@H](CCCCNc3ccc([N+](=O)[O-])cc3[N+](=O)[O-])C(=O)NCC(=O)O)cc(=O)oc2c1; assay: Fluorometric hydrolysis of synthetic Mca/Lys(Dnp) substrates by MMP-9; format: biochemical; settings: other: MMP-9, 37° C., pH 7.5
T4 construct: made in house; host or cells: native secreted protein purified from culture medium of HT-1080 cells
Description: as §1, §2

[5] = system: T5, CCC[C@H](NC(=O)[C@H](C)NC(=O)[C@H](Cc1ccc(O)cc1)NC(=O)[C@@H]1CCCN1C(=O)[C@H](CCCCN)NC(=O)[C@@H]1CCCN1C(=O)[C@H](CCCNC(=N)N)NC(=O)Cc1cc(=O)oc2cc(OC)ccc12)C(=O)N[C@@H](Cc1c[nH]c2ccccc12)C(=O)N[C@@H](CCSC)C(=O)N[C@@H](CCCCNc1ccc([N+](=O)[O-])cc1[N+](=O)[O-])C(N)=O; assay: as above; format: biochemical; settings: other: MMP-9, 37° C., pH 7.5
T5 construct: made in house; host or cells: native secreted protein purified from culture medium of HT-1080 cells
Description: as §1, §2

[6] = system: T6, CCC[C@H](NC(=O)[C@H](CCC(=O)O)NC(=O)[C@@H](NC(=O)[C@@H]1CCCN1C(=O)[C@H](CCCCN)NC(=O)[C@@H]1CCCN1C(=O)[C@H](CCCNC(=N)N)NC(=O)Cc1cc(=O)oc2cc(OC)ccc12)C(C)C)C(=O)N[C@@H](Cc1c[nH]c2ccccc12)C(=O)N[C@@H](CCCNC(=N)N)C(=O)N[C@@H](CCCCNc1ccc([N+](=O)[O-])cc1[N+](=O)[O-])C(N)=O; assay: as above; format: biochemical; settings: other: MMP-9, 37° C., pH 7.5
T6 construct: made in house; host or cells: native secreted protein purified from culture medium of HT-1080 cells
Description: as §1, §2

[7] = other: MMP-3, 25° C., pH 7.5, 25.0 °C
[8] = other: MMP-3, 37° C., pH 7.5, 37.0 °C
[9] = other: MMP-3, pH 6.0 (50 mM sodium acetate buffer), 37° C., pH 6.0, 37.0 °C

Chain of MMP-9 (Homo sapiens) (chain, as listed by the source): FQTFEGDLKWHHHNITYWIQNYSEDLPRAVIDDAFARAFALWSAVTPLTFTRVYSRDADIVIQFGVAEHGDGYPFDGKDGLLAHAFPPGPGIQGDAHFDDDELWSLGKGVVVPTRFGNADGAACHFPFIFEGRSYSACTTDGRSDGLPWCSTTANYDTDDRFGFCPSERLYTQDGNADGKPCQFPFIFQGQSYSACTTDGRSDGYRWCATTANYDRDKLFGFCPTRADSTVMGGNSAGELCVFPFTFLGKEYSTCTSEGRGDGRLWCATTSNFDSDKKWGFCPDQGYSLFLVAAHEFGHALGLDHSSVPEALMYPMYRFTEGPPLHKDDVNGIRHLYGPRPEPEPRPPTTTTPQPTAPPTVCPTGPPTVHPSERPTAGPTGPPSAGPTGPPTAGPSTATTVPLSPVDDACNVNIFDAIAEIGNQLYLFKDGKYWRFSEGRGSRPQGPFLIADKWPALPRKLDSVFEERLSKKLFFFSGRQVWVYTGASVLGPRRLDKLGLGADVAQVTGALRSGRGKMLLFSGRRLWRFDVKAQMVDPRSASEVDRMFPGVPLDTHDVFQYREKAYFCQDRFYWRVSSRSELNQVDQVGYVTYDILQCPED
Chain of MMP-3 (Homo sapiens) (chain, as listed by the source): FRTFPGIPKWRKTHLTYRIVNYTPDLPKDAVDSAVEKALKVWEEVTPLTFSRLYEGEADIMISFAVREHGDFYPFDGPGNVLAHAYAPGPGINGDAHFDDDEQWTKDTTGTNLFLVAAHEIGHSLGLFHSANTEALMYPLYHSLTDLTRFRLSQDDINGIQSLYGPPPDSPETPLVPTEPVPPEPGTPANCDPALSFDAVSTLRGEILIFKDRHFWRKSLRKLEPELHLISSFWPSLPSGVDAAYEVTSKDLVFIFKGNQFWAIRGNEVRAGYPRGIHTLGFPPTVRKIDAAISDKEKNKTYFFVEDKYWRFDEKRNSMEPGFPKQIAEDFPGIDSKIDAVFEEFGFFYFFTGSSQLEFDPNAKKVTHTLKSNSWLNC

MMP-3 (Homo sapiens)
Km [1]: 50 µM | kcat [1]: 0.53 S^-1 | kcat/Km [1]: 10,900 S^-1 M^-1 | Km [2]: 66 µM | kcat [2]: 3.95 S^-1 | kcat/Km [2]: 59,400 S^-1 M^-1 | Km [3, 7]: 20 µM | kcat [3, 7]: 1.31 S^-1 | kcat/Km [3, 7]: 65,700 S^-1 M^-1 | Km [3, 8]: 25 µM | kcat [3, 8]: 5.40 S^-1 | kcat/Km [3, 8]: 218,000 S^-1 M^-1 | Km [3, 9]: 7.5 µM | kcat [3, 9]: 2.20 S^-1 | kcat/Km [3, 9]: 302,000 S^-1 M^-1

MMP-9 (Homo sapiens)
Km [4]: 45 µM | kcat [4]: 0.18 S^-1 | kcat/Km [4]: 4,000 S^-1 M^-1 | Km [5]: 25 µM | kcat [5]: 1.38 S^-1 | kcat/Km [5]: 55,300 S^-1 M^-1 | Km [6]: 28 µM | kcat [6]: 0.282 S^-1 | kcat/Km [6]: 10,100 S^-1 M^-1
